Measured values from patent US20190343963A1.

Legend:
[1] = biological target: IL-13 (human) (UniProt P35225); test: competition ELISA; 1 h incubation
[2] = biological target: IL-13 (human) (UniProt P35225); test: competition ELISA; 24 h incubation
[3] = biological target: IL-13 (human) (UniProt P35225); test: competition ELISA; 1 h incubation; remark: listed apart in the source
[4] = biological target: IL-13 (human) (UniProt P35225); test: competition ELISA; 24 h incubation; remark: listed apart in the source

IL-13 (human), sequence (P35225 35-146): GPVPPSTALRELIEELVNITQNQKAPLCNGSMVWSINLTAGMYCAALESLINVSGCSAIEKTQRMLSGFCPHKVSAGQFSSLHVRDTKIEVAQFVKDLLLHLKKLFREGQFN

Row | Substance | EC50 ([1]; Fab) [nM] | EC50 ([2]; Fab) [nM] | EC50 [3] [nM] | EC50 [1] [nM] | EC50 [2] [nM] | EC50 [4] [nM]
1 | CAT-354 fab | 3.56 | 4 |  |  |  | 
2 | CAT-354 |  |  | 0.25 | 2.1 | 0.54 | 2.28
